Measured values reported in article PMC5657617, “The GYF domain protein PSIG1 dampens the induction of cell death during plant-pathogen interactions” (PLoS Genetics, 2017).

B1: HisMBP-SMG7 (natural protein, Arabidopsis thaliana, UniProt A9QM73 1-1059, looked up)
chain: MMTLQMDKTTASSSWERAKSIYDEIAELANKRQKAGNPPDPNLLQLLREKYEAIILESHTFSEQHNIEIPLWQLHYKRIEYFRLHINRVLASSTSTAAQNVKGPSKAEQIAQLKLQFRTFLSEATGFYHDMILKIRSKYGLPLGSFSEDQQSQNLSDKDGKELAEVQKALKSCHRCLIYLGDLARYKGMYAEGDSRSRQYASASSYYLQAASLWPASGNPHHQLAIVASYSRDEFVTTYRYFRSLAVEYPFPTARDNLIVAFDKNRQSYEKLFVPSKDSSKRLTGKGRGKGADISLKDATLVAGPEKDKVTIANEMLKAFSIRFVHLNGILFTRTSLETFFDVLASTSSSLREVISLGSAKELTLGIDTSDSALFIVRVVTMLIFSVHNSKKETEGQSYAEIVQRVEPARNSLTASFELLGLVIEKCVQLGDPSSSYFLPGVLVFVEWLACCPDIALGSDPDDRQTAVRNSFWNQFVVFFNQVLSLGPTFIDDVEDETCFSNMSLYDERETENRLALWEDYELRGFLPLLPAQTILNFSRKHSFGTEGPKEKKARIKRIFAAGKALTSVIKVDQNHVYFDSKKKKFLVGVKPADDFLDSHSSPPKACNALQDNQVMIDHNSPIMQLDQQIYMGEEDDDDEVIVFKPLVTEKRKEASDQIYVPSGGFRKSDQVTTMGDFKALSGSDVAFHENQILQARGNASIQVPASVGANLLGPLQPSTQSQAMHMQQVQTQVQVPASVGANLLGLLLTSTQSQAMHMQQVQTQAVNPQPAQSLAASRLQPIQSQVAQPLPSRVVHFQQTQAQVSHVSPAHSQSTSFGGGSKWSPEEAASLASSLSGFAQLGNGHVMRNEMQGNHGVSYYPAHSLPVHQSYNGNGMGGMPYSQSRTPEAVFPPKIDPVLSSGVVADGLGVQSSLAKKNPISRAFRHLGPPPGFNSVPAKLQKEPAPGSELSGNNHLPVDDYSWLDGYQAQSSRGVGLNSSLNYATSGKPEHLGSTGNGLNGPANFPFPGKQVPTSQVQADFPYFQNPQKDNFVDKNHQSTQLPEQYQGQSTWSSRHFV
notes: SMG7, Arabidopsis thaliana, At5g19400; open reading frame amplified from Arabidopsis seedling (Col-8) cDNA; residues 1-1059 by the limits of its two halves; also called AtSMG7; HisMBP-tagged SMG7; source: Escherichia coli Rosetta-gami 2 (DE3), purified (Dextrin-Sepharose)
B2: GST-PSIG1^1-606 (domain or fragment)
chain: not shown
notes: PSIG1, Arabidopsis thaliana, At5g42950, residues 1-606, with the GYF domain and without its own PPGF motif; Vector pGEX4T-3; source: Escherichia coli Rosetta-gami 2 (DE3), purified (Glutathione-Sepharose)
B3: HisMBP-SMG7-C (domain or fragment, Arabidopsis thaliana, UniProt A9QM73 549-1059, looked up)
chain: PKEKKARIKRIFAAGKALTSVIKVDQNHVYFDSKKKKFLVGVKPADDFLDSHSSPPKACNALQDNQVMIDHNSPIMQLDQQIYMGEEDDDDEVIVFKPLVTEKRKEASDQIYVPSGGFRKSDQVTTMGDFKALSGSDVAFHENQILQARGNASIQVPASVGANLLGPLQPSTQSQAMHMQQVQTQVQVPASVGANLLGLLLTSTQSQAMHMQQVQTQAVNPQPAQSLAASRLQPIQSQVAQPLPSRVVHFQQTQAQVSHVSPAHSQSTSFGGGSKWSPEEAASLASSLSGFAQLGNGHVMRNEMQGNHGVSYYPAHSLPVHQSYNGNGMGGMPYSQSRTPEAVFPPKIDPVLSSGVVADGLGVQSSLAKKNPISRAFRHLGPPPGFNSVPAKLQKEPAPGSELSGNNHLPVDDYSWLDGYQAQSSRGVGLNSSLNYATSGKPEHLGSTGNGLNGPANFPFPGKQVPTSQVQADFPYFQNPQKDNFVDKNHQSTQLPEQYQGQSTWSSRHFV
notes: also called AtSMG7-C (549-1059); C-terminal half of SMG7; source: Escherichia coli Rosetta-gami 2 (DE3), purified (Dextrin-Sepharose)

Tests used:
[1] = molecular target: T1, GST-PSIG1 (PLANT SMY2-TYPE ILE-GYF DOMAIN-CONTAINING PROTEIN 1, full length) (Arabidopsis thaliana, UniProt Q9FMM3 1-1714); assay: pull-down; GST-PSIG1 proteins and HisMBP-SMG7 proteins mixed in 50 mM Tris-HCl pH 7.5, 150 mM NaCl, 1 mM DTT, 0.1% Triton X-100; Glutathione-Sepharose beads, 2 h at 4°C; washed three times with 300 mM NaCl buffer; detected by anti-His or anti-GST immunoblot or CBB; conditions: both partners purified
T1 construct: PSIG1 (EXA1/MUSE11), Arabidopsis thaliana, At5g42950; whole ORF cloned into pGEX4T-3; the text calls it full-length PSIG1; Vector pGEX4T-3, cloned between SalI and NotI sites; also called GST-tagged PSIG1; EXA1; source: Escherichia coli Rosetta-gami 2 (DE3), purified (Glutathione-Sepharose)
T1 sequence (Q9FMM3 whole entry, the tested form may be a part): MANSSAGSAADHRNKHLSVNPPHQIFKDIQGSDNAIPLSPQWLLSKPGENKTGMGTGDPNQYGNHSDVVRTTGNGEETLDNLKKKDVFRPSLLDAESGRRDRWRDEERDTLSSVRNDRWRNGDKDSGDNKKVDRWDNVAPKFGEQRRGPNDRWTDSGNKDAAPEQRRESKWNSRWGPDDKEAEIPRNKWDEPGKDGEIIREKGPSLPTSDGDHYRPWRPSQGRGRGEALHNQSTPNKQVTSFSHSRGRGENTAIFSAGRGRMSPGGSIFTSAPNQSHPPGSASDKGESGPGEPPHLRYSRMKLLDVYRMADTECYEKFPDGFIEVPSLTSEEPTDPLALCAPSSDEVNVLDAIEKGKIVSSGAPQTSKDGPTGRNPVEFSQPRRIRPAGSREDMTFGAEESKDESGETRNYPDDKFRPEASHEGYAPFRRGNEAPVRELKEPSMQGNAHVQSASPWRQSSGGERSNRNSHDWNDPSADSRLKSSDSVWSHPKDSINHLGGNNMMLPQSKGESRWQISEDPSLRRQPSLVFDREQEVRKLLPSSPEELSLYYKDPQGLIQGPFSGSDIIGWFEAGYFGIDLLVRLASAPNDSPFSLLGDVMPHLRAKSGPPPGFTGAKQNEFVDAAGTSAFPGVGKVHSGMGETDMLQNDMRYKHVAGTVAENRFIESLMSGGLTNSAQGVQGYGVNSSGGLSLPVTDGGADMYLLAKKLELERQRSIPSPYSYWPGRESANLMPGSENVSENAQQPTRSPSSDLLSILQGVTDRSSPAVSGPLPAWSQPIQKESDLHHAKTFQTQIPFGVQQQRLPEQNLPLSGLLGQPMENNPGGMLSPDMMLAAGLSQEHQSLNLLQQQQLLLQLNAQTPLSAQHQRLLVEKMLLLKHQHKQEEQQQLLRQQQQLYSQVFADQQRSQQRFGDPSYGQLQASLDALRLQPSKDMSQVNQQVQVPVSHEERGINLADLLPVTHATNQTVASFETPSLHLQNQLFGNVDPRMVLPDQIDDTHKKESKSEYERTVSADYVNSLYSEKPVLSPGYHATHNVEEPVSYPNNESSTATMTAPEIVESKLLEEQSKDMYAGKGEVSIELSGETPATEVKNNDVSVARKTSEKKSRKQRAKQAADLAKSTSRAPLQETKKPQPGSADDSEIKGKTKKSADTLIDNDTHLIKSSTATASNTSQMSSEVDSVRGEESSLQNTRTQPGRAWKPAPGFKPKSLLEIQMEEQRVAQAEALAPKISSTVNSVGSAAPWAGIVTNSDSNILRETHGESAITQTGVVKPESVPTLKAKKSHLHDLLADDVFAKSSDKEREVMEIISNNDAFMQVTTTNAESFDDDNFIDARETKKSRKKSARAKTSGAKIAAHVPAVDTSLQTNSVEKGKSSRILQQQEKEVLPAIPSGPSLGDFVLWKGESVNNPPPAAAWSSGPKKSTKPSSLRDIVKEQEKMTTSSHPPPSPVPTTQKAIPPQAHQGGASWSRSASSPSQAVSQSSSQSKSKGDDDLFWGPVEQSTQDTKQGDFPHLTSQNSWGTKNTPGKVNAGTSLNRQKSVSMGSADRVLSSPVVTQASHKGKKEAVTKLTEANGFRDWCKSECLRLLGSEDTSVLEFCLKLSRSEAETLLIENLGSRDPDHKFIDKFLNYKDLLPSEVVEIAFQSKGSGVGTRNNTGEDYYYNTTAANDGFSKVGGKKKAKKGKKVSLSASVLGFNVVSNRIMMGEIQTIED

[2] = molecular target: B1; assay: as above; conditions: both partners purified

| binding result [1] | binding result [2] | Binder |
| --- | --- | --- |
| binds | – | B1 |
| – | binds | B2 |
| binds | – | B3 |
